# Assay results as given in patent US20210388087A1.
# Substitutions are numbered along the chain they refer to. Names may count otherwise.
# T1: Human CD3eg linker (human)
# T1 chain: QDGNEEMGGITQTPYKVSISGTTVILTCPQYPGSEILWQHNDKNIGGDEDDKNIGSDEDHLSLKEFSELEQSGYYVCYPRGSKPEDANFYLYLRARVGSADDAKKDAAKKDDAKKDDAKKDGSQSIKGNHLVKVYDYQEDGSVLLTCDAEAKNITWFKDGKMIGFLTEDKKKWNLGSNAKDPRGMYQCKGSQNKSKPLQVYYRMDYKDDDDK
# B1: CE115HA000/GLS3000 H27dD (antibody, IgG1, name in Kabat numbering, V domains shown)
# VH: QVQLVESGGGVVQPGRSLRLSCAASGFTFSNAWMHWVRQAPGKGLEWVAQIKAKSNNYATYYAESVKGRFTISRDDSKNSLYLQMNSLKTEDTAVYYCRYVHYGAYYGVDAWGQGTTVTVSS
# VL: DIVMTQSPLSLPVTPGEPASISCRSSQSLVDSNRNTYLHWYQQKPGQAPRLLIYKVSNRFSGVPDRFSGSGSGTDFTLKISRVEAEDVGVYYCGQGTQVPYTFGQGTKLEIK
# B2: CE115HA000/GLS3000 H34R (antibody, IgG1, name in Kabat numbering, V domains shown)
# VH: B1 VH
# VL: B1 VL with D31H, H39R
# B3: CE115HA000/GLS3000 G91S (antibody, IgG1, name in Kabat numbering, V domains shown)
# VH: B1 VH
# VL: B1 VL with D31H, G96S
# B4: CE115HA000/GLS3000 N28D (antibody, IgG1, name in Kabat numbering, V domains shown)
# VH: B1 VH
# VL: B1 VL with D31H, N33D
# B5: H1647L0581 (antibody, V domains shown)
# VH: QVQLVESGGGLVQPGRSLRLSCAASGFKFSNTWFHWVRQAPGKGLEWVAQIKDYYNDYAAYYAPSVKGRFTISRDDSKNSIYLQMNSLKTEDTAVYYCHYVHYASASTLLPAEGVDAWGQGTTVTVSS
# VL: DIVMTQSPLSLPVTPGEPASISCQPSQEVVHMNRNTYLHWYQQKPGQAPRLLIYKVSNRFPGVPDRFSGSGSGTDFTLKISRVEAEDVGVYYCAQGTSHPFTFGQGTKLEIK
# B6: Ctrl/Ctrl × CD3 trispecific antibody (antibody, part only; not given: control Fvs, constant regions, Fc, V domains shown, not shown: another chain or arm of the molecule; a dimerising Fc or GST; large carriers)
# VH: QVQLVESGGGLVQPGRSLRLSCAASGFTFSNAWMHWVRQAPGKGLEWVAQIKDRANSYNTYYAESVKGRFTISRDDSKNSIYLQMNSLKTEDTAVYYCRYVHYTTYAGSSFSYGVDAWGQGTTVTVSS
# VL: B1 VL with S28P, D31H
# Tests used:
# [1] = target: CD3 epsilon homodimer protein (UniProt P07766); assay: SPR, antibody over immobilised CD3e homodimer
# [2] = target: T1, Human CD3eg linker (human); assay: SPR Biacore T200, 25 C, Ab captured on anti-human Fc, antigen as analyte; details: remark: other sources report otherwise
# [3] = target: Human CD3eg linker (human); assay: SPR (Biacore T200), 37 degrees C, antibody captured by anti-human Fc on CM4 chip, recombinant human CD3 as analyte, 1:1 model
# Chain of CD3 epsilon homodimer protein (P07766 23-126): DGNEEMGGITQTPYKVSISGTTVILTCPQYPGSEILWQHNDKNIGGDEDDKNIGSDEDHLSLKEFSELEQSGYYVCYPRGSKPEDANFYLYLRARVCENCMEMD
binder,measurement,setting,value
B1,KD ratio to GLS3000,[1],13600
B2,KD ratio to GLS3000,[1],85800
B3,KD ratio to GLS3000,[1],72100
B4,KD ratio to GLS3000,[1],4460
B5,Kd,[2],2280 nM
same,koff,[2],0.101 s⁻¹
same,kon,[2],44300 M⁻¹ s⁻¹
B6,Kd,[3],17.5 nM
same,koff,[3],0.00147 s⁻¹
same,kon,[3],83700 M⁻¹ s⁻¹
